The supplement of paper PMC7877785
± gives the uncertainty stated by the source.

Experiment: self-splicing fitness, log relative to wild type (ln ratio); higher = more splicing; Tetrahymena group I intron in knt gene, E. coli kanamycin selection, DiMSum; sequences stand for … in CUCUCU…GGAGGGAAAAGUUAUCAGGCAUGCACCUGGUAGCUAGUCUUUAAACCAAUAGAUUGCAUCGGUUUAAAAGGCAAGACCGUCAAAUUGCGGGAAAGGGGUCAACAGCCGUUCAGUACCAAGUCUCAGGGGAAACUUUGAGAUGGCCUUGCAAAGGGUAUGGUAAUAAGCUGACGGACAUGGUCCUAACCACGCAGCCAAGUCCUAAGUCAACAGAUCUUCUGUUGAUAUGGAUGCAGUUCACAGACUAAAUGUCGGUCGGGGAAGAUGUAUUCUUCUCAUAAGAUAUAGUCGGACCUCUCCUUAAUGGGAGCUAGCGGAUGAAGUGAUGCAACACUGGAGCCGCUGGGAACUAAUUUGUAUGCGAAAGUAUAUUGAUUAGUUUUGGAGUACUCGUGGUCG
How it was run: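 The eight P1ex-region nucleotides of an intron in the knt kanamycin-resistance gene on pET-22b(+) were all randomised and the library put into E. coli BL21(DE3). Six replicate transformations were grown overnight at 37°C or 30°C on LB agar with or without 25 μg/mL kanamycin, together with 100 μg/mL carbenicillin, 50 μM IPTG and 0.2% rhamnose. Colonies were pooled and amplicon-sequenced on an Illumina HiSeq 2500. Fitness from DiMSum is the error-weighted combination of wild-type-normalised replicate fold changes, kanamycin over none.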

Row | Sequence | self-splicing fitness (ln) (30 °C) | self-splicing fitness (ln) (37 °C)
1 | AGUCAGCAAUAUUACGCGGA | -3.11 ± 0.26 | -1.79 ± 0.18
2 | AGUCAGCAAUAUUACGCUUU | -0.879 ± 0.063 | 0.0148 ± 0.087
3 | AGUCAGCAAUAUUACGGCCU | 0.247 ± 0.1 | 0.507 ± 0.13
4 | AGUCAGCAAUAUUACGGUCU | -0.851 ± 0.06 | -0.146 ± 0.068
5 | AGUCAGCAAUAUUACGUAGA | -2.08 ± 0.095 | -0.757 ± 0.098
6 | AGUCAGCAAUAUUACGUAGG | -3.1 ± 0.12 | -1.64 ± 0.14
7 | AGUCAGCAAUAUUACGUAGU | -1.21 ± 0.077 | -0.268 ± 0.12
8 | AGUCAGCAAUAUUACGUAUA | -2.69 ± 0.12 | -1.33 ± 0.1
9 | AGUCAGCAAUAUUACGUCUG | -2.2 ± 0.13 | -0.783 ± 0.12
10 | AGUCAGCAAUAUUACGUUGC | – | -2.83 ± 0.3
11 | AGUGAGCAAUAUUACGAAAC | -2.97 ± 0.38 | -1.2 ± 0.33
12 | AGUGAGCAAUAUUACGACAA | -2.34 ± 0.23 | -0.743 ± 0.18
13 | AGUGAGCAAUAUUACGAGUA | -3.6 ± 0.44 | -2.18 ± 0.32
14 | AGUGAGCAAUAUUACGCCGU | -2.39 ± 0.38 | –
15 | AGUGAGCAAUAUUACGCCUC | -1.98 ± 0.24 | –
16 | AGUGAGCAAUAUUACGCGCG | -1.28 ± 0.16 | -1.83 ± 0.22
17 | AGUGAGCAAUAUUACGCGUC | -1.51 ± 0.3 | -2.62 ± 0.45
18 | AGUGAGCAAUAUUACGCGUG | -4.06 ± 0.28 | -2.34 ± 0.15
19 | AGUGAGCAAUAUUACGCUUA | – | -1.98 ± 0.38
20 | AGUGAGCAAUAUUACGGAGU | -2.86 ± 0.3 | -3.09 ± 0.35
21 | AGUGAGCAAUAUUACGGCAU | -1.36 ± 0.12 | -0.254 ± 0.13
22 | AGUGAGCAAUAUUACGGCGA | -1.18 ± 0.14 | -2 ± 0.21
23 | AGUGAGCAAUAUUACGGGGC | – | -2.75 ± 0.29
24 | AGUGAGCAAUAUUACGGUAG | -3.02 ± 0.4 | –
25 | AGUGAGCAAUAUUACGGUUG | -3.38 ± 0.27 | -1.92 ± 0.24

Row | Sequence | self-splicing fitness (ln) (30 °C) | self-splicing fitness (ln) (37 °C)
26 | AGUGAGCAAUAUUACGUCGA | -3.92 ± 0.24 | -2 ± 0.16
27 | AGUGAGCAAUAUUACGUUAC | -3.72 ± 0.47 | –
28 | AGUGAGCAAUAUUACGUUGG | -4.42 ± 0.36 | -1.98 ± 0.26
29 | AGUGAGCAAUAUUACGUUUC | -3.41 ± 0.23 | -3.56 ± 0.32
30 | AGUUAGCAAUAUUACGAAGG | -4.03 ± 0.22 | -3.4 ± 0.28
31 | AGUUAGCAAUAUUACGACUA | -0.154 ± 0.18 | 0.0802 ± 0.17
32 | AGUUAGCAAUAUUACGAUCC | 0.593 ± 0.14 | -0.367 ± 0.15
33 | AGUUAGCAAUAUUACGCACA | 0.242 ± 0.2 | 0.395 ± 0.28
34 | AGUUAGCAAUAUUACGCAUU | -3.25 ± 0.25 | -0.806 ± 0.17
35 | AGUUAGCAAUAUUACGCGAA | -2.29 ± 0.15 | -1.1 ± 0.13
36 | AGUUAGCAAUAUUACGCUAU | -2.29 ± 0.17 | -1.21 ± 0.14
37 | AGUUAGCAAUAUUACGGGAA | -2.22 ± 0.19 | -1.05 ± 0.16
38 | AGUUAGCAAUAUUACGGGUC | -1.99 ± 0.33 | –
39 | AGUUAGCAAUAUUACGGUCA | -1.08 ± 0.077 | -0.46 ± 0.085
40 | AGUUAGCAAUAUUACGUAGG | -4.63 ± 0.32 | –
41 | AGUUAGCAAUAUUACGUAUC | -3.63 ± 0.2 | -2.25 ± 0.18
42 | AGUUAGCAAUAUUACGUCGA | -1.37 ± 0.12 | -1.02 ± 0.13
43 | AGUUAGCAAUAUUACGUCGC | -2.96 ± 0.39 | -0.924 ± 0.18
44 | AGUUAGCAAUAUUACGUGGU | -3.34 ± 0.15 | -3.35 ± 0.23
45 | AGUUAGCAAUAUUACGUUCG | -1.26 ± 0.082 | -0.903 ± 0.1
46 | AGUUAGCAAUAUUACGUUUC | -3.37 ± 0.34 | –
47 | AGUUAGCAAUAUUACGUUUG | -3.13 ± 0.24 | -1.8 ± 0.29
48 | AGUUAGCAAUAUUACGUUUU | -3.11 ± 0.18 | -1.41 ± 0.15
49 | AUAAAGCAAUAUUACGACAA | -0.556 ± 0.086 | 0.621 ± 0.12
50 | AUAAAGCAAUAUUACGACGU | 0.742 ± 0.063 | 0.786 ± 0.074

Row | Sequence | self-splicing fitness (ln) (30 °C) | self-splicing fitness (ln) (37 °C)
51 | AUAAAGCAAUAUUACGACUG | -1.14 ± 0.085 | -0.454 ± 0.098
52 | AUAAAGCAAUAUUACGAGCG | -0.041 ± 0.086 | 0.101 ± 0.09
53 | AUAAAGCAAUAUUACGCAAU | -0.8 ± 0.074 | -0.703 ± 0.11
54 | AUAAAGCAAUAUUACGCAGG | -1.32 ± 0.098 | -0.913 ± 0.14
55 | AUAAAGCAAUAUUACGCCAA | -0.625 ± 0.15 | -0.34 ± 0.17
56 | AUAAAGCAAUAUUACGCCCC | -0.123 ± 0.16 | 0.0897 ± 0.24
57 | AUAAAGCAAUAUUACGCCCG | -1.01 ± 0.14 | -0.313 ± 0.16
58 | AUAAAGCAAUAUUACGCGAU | -2.45 ± 0.15 | -1.36 ± 0.16
59 | AUAAAGCAAUAUUACGCGCU | -0.372 ± 0.1 | -0.603 ± 0.12
60 | AUAAAGCAAUAUUACGCUUC | -3.66 ± 0.37 | -2.39 ± 0.32
61 | AUAAAGCAAUAUUACGCUUU | -4.03 ± 0.24 | -1.59 ± 0.23
62 | AUAAAGCAAUAUUACGGAAG | -2.3 ± 0.098 | -0.18 ± 0.11
63 | AUAAAGCAAUAUUACGGAUC | -1.55 ± 0.13 | -0.273 ± 0.15
64 | AUAAAGCAAUAUUACGGUCU | -0.245 ± 0.061 | 0.47 ± 0.088
65 | AUAAAGCAAUAUUACGGUUC | -2.17 ± 0.088 | -0.743 ± 0.1
66 | AUAAAGCAAUAUUACGGUUU | -0.835 ± 0.072 | -0.0425 ± 0.098
67 | AUAAAGCAAUAUUACGUAAG | -2.08 ± 0.1 | -0.84 ± 0.11
68 | AUAAAGCAAUAUUACGUCCA | -0.469 ± 0.098 | 0.194 ± 0.16
69 | AUAAAGCAAUAUUACGUCGC | -2.83 ± 0.25 | -1.41 ± 0.19
70 | AUAAAGCAAUAUUACGUGCA | -0.0876 ± 0.067 | 0.348 ± 0.093
71 | AUAAAGCAAUAUUACGUGCC | -0.00478 ± 0.083 | 0.162 ± 0.12
72 | AUACAGCAAUAUUACGACCA | -0.419 ± 0.15 | -0.298 ± 0.17
73 | AUACAGCAAUAUUACGACGU | -0.374 ± 0.068 | 0.174 ± 0.084
74 | AUACAGCAAUAUUACGAGGG | -3.68 ± 0.2 | -2.21 ± 0.19
75 | AUACAGCAAUAUUACGAGGU | -3.04 ± 0.11 | -1.84 ± 0.11

Row | Sequence | self-splicing fitness (ln) (30 °C) | self-splicing fitness (ln) (37 °C)
76 | AUACAGCAAUAUUACGAGUA | -1.76 ± 0.16 | -0.461 ± 0.1
77 | AUACAGCAAUAUUACGAGUG | -2.32 ± 0.073 | -1.34 ± 0.093
78 | AUACAGCAAUAUUACGCAGG | -2.78 ± 0.14 | -0.332 ± 0.11
79 | AUACAGCAAUAUUACGCAGU | -2.88 ± 0.23 | -2.74 ± 0.22
80 | AUACAGCAAUAUUACGCCAG | -1.79 ± 0.14 | -2.03 ± 0.2
81 | AUACAGCAAUAUUACGCGGG | -3.46 ± 0.15 | -1.75 ± 0.11
82 | AUACAGCAAUAUUACGCGUC | -3.72 ± 0.14 | -2.6 ± 0.13
83 | AUACAGCAAUAUUACGGGAA | -2.72 ± 0.17 | -1.51 ± 0.13
84 | AUACAGCAAUAUUACGGGCU | -2.77 ± 0.11 | -1.29 ± 0.12
85 | AUACAGCAAUAUUACGUACA | -0.262 ± 0.081 | -0.215 ± 0.11
86 | AUACAGCAAUAUUACGUAUG | -2.42 ± 0.16 | -2.52 ± 0.18
87 | AUACAGCAAUAUUACGUCGU | -1.3 ± 0.07 | -0.0346 ± 0.077
88 | AUACAGCAAUAUUACGUUUA | -1.73 ± 0.078 | -1.07 ± 0.084
89 | AUAGAGCAAUAUUACGACCA | -2.34 ± 0.18 | -1.49 ± 0.27
90 | AUAGAGCAAUAUUACGACGG | -2.52 ± 0.18 | -0.742 ± 0.26
91 | AUAGAGCAAUAUUACGAUAA | -1.23 ± 0.16 | -0.812 ± 0.23
92 | AUAGAGCAAUAUUACGCACU | -0.797 ± 0.14 | 0.815 ± 0.14
93 | AUAGAGCAAUAUUACGCAUA | -0.926 ± 0.16 | -0.513 ± 0.26
94 | AUAGAGCAAUAUUACGCCAA | -2.44 ± 0.24 | -0.839 ± 0.3
95 | AUAGAGCAAUAUUACGCGAA | -1.34 ± 0.093 | -1.1 ± 0.11
96 | AUAGAGCAAUAUUACGCGCC | -1.86 ± 0.32 | -0.949 ± 0.28
97 | AUAGAGCAAUAUUACGCGGG | -2.17 ± 0.12 | -2.33 ± 0.16
98 | AUAGAGCAAUAUUACGCGUG | -0.385 ± 0.11 | -1.09 ± 0.13
